We go through one substance from PMC8056151.

For this assay, the target named is AG-tagged DDB1 (DNA damage-binding protein 1) (human) (UniProt Q16531). Briefly: Fluoppi.
Sequence of UniProt Q16531 (Q16531 whole entry): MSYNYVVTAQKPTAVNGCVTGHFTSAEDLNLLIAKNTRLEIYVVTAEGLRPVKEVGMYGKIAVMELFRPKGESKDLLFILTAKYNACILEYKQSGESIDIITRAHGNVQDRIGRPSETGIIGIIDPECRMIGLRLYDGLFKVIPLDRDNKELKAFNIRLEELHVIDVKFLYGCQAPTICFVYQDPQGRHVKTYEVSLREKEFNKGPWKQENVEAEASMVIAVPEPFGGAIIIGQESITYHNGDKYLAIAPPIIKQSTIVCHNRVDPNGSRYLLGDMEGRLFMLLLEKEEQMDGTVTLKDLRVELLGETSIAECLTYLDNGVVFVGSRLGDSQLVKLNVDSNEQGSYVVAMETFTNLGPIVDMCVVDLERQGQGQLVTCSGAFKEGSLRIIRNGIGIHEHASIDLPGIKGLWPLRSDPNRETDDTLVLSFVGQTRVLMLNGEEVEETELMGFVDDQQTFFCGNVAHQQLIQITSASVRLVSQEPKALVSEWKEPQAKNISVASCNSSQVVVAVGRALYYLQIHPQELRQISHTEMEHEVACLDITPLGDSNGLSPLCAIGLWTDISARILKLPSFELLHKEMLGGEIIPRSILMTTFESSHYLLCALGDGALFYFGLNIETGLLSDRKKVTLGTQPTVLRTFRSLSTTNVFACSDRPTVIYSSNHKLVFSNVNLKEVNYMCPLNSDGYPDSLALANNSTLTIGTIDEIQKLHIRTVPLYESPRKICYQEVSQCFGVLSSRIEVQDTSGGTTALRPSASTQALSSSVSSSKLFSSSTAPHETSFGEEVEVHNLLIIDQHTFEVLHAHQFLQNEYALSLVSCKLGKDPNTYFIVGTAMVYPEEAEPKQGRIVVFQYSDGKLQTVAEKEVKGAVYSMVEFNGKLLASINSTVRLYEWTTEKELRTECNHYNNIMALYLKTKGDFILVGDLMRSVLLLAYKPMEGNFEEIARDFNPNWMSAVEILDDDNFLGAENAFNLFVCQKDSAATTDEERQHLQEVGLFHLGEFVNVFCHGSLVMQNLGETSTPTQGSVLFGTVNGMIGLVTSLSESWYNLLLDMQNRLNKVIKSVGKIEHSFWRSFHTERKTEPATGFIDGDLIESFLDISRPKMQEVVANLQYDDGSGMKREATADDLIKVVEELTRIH

“Ash-tagged hepatitis B virus X protein (full-length HBx, wild type) (natural protein)”: the percent of fluorescent puncta left with NTZ stood at 50%.
